Experimental data published in US20120301468A1, “ANTI-MN ANTIBODIES AND METHODS OF USING SAME” (BAYER HEALTHCARE LLC, priority 2005, published 2012).

B1: 5aa3: anti-MN antibody; CDRs SEQ ID NOS: 81, 83, 85, 104, 105, and 106 (antibody, V domains shown)
VH: QVELVQSGAEVKKPGESLKISCKGSGYSFTGYISWVRQAPGKGLEWMGIIYPGDSYTNYSPSFQGQVTISADKSISTAYLQWSSLKASDTAMYYCARYSGPNWDVMDSWGQGTLVTVSS
VL: DIVLTQPPSVSGAPGQRVTISCSGSSSNIGSYYVNWYQQLPGTAPKLLIYADDKRPSGVPDRFSGSKSGTSASLAITGLQSEDEADYYCQSYDSTKDDSVFGGGTKLTVL
B2: 1e4: anti-MN monoclonal IgG1; CDRs SEQ ID NOS: 59, 65, 72, 107, 109, and 111 (antibody, V domains shown)
VH: ELVESGGGLVQPGGSLRLSCAASGFTFSNNAMNWVRQAPGKGLEWVSGISYDSSKTYYADSVKGRFTISRDNSKNTLYLQMNSLRAEDTAVYYCARLTYTGAYRWGQGTLVTVSS
VL: DIELTQPPSVSVAPGQTARISCSGDNLGSYYVHWYQQKPGQAPVLVIYDDNNRPSGIPERFSGSNSGNTATLTISGTQAEDEADYYCQSYDFGKVVFGGGTKLTVL
B3: 1E4 immunoconjugate (conjugate)
VH: QVELVESGGGLVQPGGSLRLSCAASGFTFSNNAMNWVRQAPGKGLEWVSGISYDSSKTYYADSVKGRFTISRDNSKNTLYLQMNSLRAEDTAVYYCARLTYTGAYRWGQGTLVTVSS
VL: DIELTQPPSVSVAPGQTARISCSGDNLGSYYVHWYQQKPGQAPVLVIYDDNNRPSGIPERFSGSNSGNTATLTISGTQAEDEADYYCQSYDFGKVVFGGGTKLTVL
B4: 1aa1 immunoconjugate (conjugate)
VH: QVELVQSGAEVKKPGASVKVSCKASGYTFTTNYMHWVRQAPGQGLEWMGIINPHNGSTSYAQKFQGRVTMTRDTSISTAYMELSSLRSEDTAVYYCARGRYFLMDVWGQGTLVTVSS
VL: DIQMTQSPSSLSASVGDRVTITCRASQNILSYLNWYQQKPGKAPKLLIYAASSLQSGVPSRFSGSGSGTDFTLTISSLQPEDFAVYYCQQYGSVPTFGQGTKVEIK

Assays:
MN = MN (Homo sapiens, UniProt Q16790); assay: Immunoprecipitation of biotinylated cell surface proteins; assay type: binding; parameters: incubated with cell lysates of MN+ (Pc3 mm2) and MN− (DLD-1) cell lines that had been selectively labeled with biotin; endogenous in cells; host or cells: PC-3 mm2 (MN+); DLD-1 as the MN- control; details: biotin-labeled lysates of MN+ (Pc3 mm2) and MN− (DLD-1) cell lines
Description: To further explore specificity, various candidate antibodies including the antibody portion of 3ee9/MMAE (3ee9) and the reference antibody G250 were incubated with cell lysates of MN+ (Pc3 mm2) and MN− (DLD-1) cell lines that had been selectively labeled with biotin. Complexes between the antibodies and cellular proteins were immuno-precipitated and the co-precipitated antigens visualized using immunoblots developed with enzyme-linked streptavidin.

[1] = test system: MaTu human mammary carcinoma xenograft; details: MaTu xenograft; 30 mg/kg immunoconjugate; i.v. Q4Dx3
Description: Anti-MN antibodies were conjugated to cytotoxic small molecules using protocols that are known in the art (e.g., Liu, et al., Proc. Natl. Acad. Sci. 93:8618-8623, 1996). Human mammary xenograft, MaTu cells were maintained as adherent cultures in RPMI supplemented with 10% FBS. Ncr nude mice (8-12 weeks of age) were inoculated subcutaneously in the right flank with 5×10^6 cells in 0.1 mL of 80% matrigel/20% HBSS. When tumors reached an average size of ˜180 mg (6 days), treatment was initiated. Monoclonal antibodies conjugated to cytotoxic small molecules were administered i.v. once every four days (Q4Dx3) at a dose of 10 mg/kg. […] The length and width of each tumor was measured by using an electronic caliper 2-3 times per week and tumor weights (mg) were calculated based on the formula of [length (mm)×width (mm)^2]/2. […] Tumor growth inhibition (TGI) was calculated as 1−T/C×100, where T=final tumor weights from a treated group, and C=final tumor weights from the control group.
The in vivo anti-tumor effect of 3ee9/MMAE was examined in 6 different human xenograft tumor models. […] The human tumor xenograft models evaluated included the MaTu human mammary carcinoma model, the HT-29 and Colo-205 human colo-rectal carcinoma (CRC) models, PC3MM2 prostate carcinoma model, the HCT-15 multi-drug resistant (P-gp) CRC model, and the MiaPaCa2 human pancreatic model. […]

[2] = test system: adhesion of MaTu cells to MN-coated wells; assay: Cell adhesion assay; assay type: cell-based, human; details: 100 μg antibody; 5000 MaTu cells
Description: Fifty (50) μL of a 1 μg/mL solution of purified MN in PBS was adsorbed onto a non-treated 96-well plate overnight at 4° C. The solution was removed, and the wells rinsed 3× with PBS. The wells were blocked for 1 hour with 200 μL 50% FBS in RPMI1640 media. The wells were then treated with 100 μg 1e4 anti-MN antibody in 1% BSA in PBS, control IgG in 1% BSA in PBS or 1% BSA in PBS. After washing with PBS, 5000 MaTu cells (MN+ cells) were added to the wells and the plate incubated overnight at 37° C. at 5% CO2. The ability of anti-MN antibodies to block adhesion of MaTu cells to MN-coated wells was assessed after washing with PBS.

MN-negative DLD cells = assay: FACS cell binding, DLD cells; assay type: cell-based
Description: (§1) Cells may be assayed for MN expression as a diagnostic tool. Adherent MN-expressing PC-3 mm2 cells and non-MN expressing DLD1 cells were detached from their flasks with 1:10 trypsin/Versene in PBS solution for 5 to 10 minutes. Cells were spun down (1000 rpm, 5 minutes), washed once with ice cold RPMI 10% FBS, and resuspended in ice-cold staining buffer (Ca^+ Mg^+-free PBS, 2% BSA, and 0.05% sodium azide) at 6×10^6 cells/ml. Primary antibody, human anti-MN IgG1, or control human IgG1 antibody at 25 μg/mL were incubated with 6×10^5 cells on ice for 1 hour. The unbound antibody was washed from the cells with the ice-cold staining buffer. The cells were fixed with 2% formaldehyde in PBS for 10 minutes, then washed twice with staining buffer. The cell pellet was resuspended in 100 μl ice cold staining buffer containing anti-human Alexa fluor 488 secondary antibody (final conc. 1:200, Molecular Probes/Invitrogen, Carlsbad, Calif.), and incubated on ice for 1 hour. The unbound antibody was washed from the cells two times with flow buffer (PBS containing 2% BSA), and the cells were resuspended in 1 mL flow buffer. FACS analysis of the resuspended cells was performed on a […] FACS Caliber instrument.
The MN antibody G250, a humanized IgG1 antibody, (Wilex) was used as a reference throughout the in vitro studies.

MN+ (PC3 mm2) cells = assay: FACS cell binding, PC3 mm2 cells; assay type: cell-based, human; details: MN+ cells (PC3 mm2, FIGS. 10b, 10c)
Description: as §1

[3] = test system: MN-expressing cells (PC3 mm2); assay: Antibody internalization (Cellomics), PC3 mm2; assay type: cell-based, human
MN+ cells (MaTu) = assay: In vitro cytotoxicity, MaTu
MN-negative cells (DLD1) = assay: Antibody internalization (Cellomics), DLD1; assay type: cell-based
[4] = test system: MN-expressing PC3 mm2 cells; assay: In vitro cytotoxicity, PC3 mm2

Row | Molecule | co-immunoprecipitated proteins (specificity) (MN) | anti-tumor effect [1] | inhibition of cell adhesion [2] | cell binding by FACS (MN-negative DLD cells) | cell binding by FACS (MN+ (PC3 mm2) cells) | internalization [3] | cytotoxicity (MN+ cells (MaTu)) | internalization (MN-negative cells (DLD1)) | cytotoxicity [4]
1 | B1 | co-immunoprecipitated several other proteins in addition to MN | – | – | – | – | – | – | – | –
2 | B2 | – | no effect | inhibits cell adhesion | – | – | – | – | – | –
3 | B3 | – | significant anti-tumor effect | – | not to MN− cells | exhibited binding to MN+ cells | internalized by MN+ cells (PC3 mm2) | selectively cytotoxic for MN+ cells | not by MN− (DLD1) cells | selectively cytotoxic for MN+ cells
4 | B4 | – | – | – | not to MN− cells | exhibited binding to MN+ cells | – | – | – | selectively cytotoxic for MN+ cells
